Source: paper PMC5610943 (Journal of molecular biology, 2017)

Target: recombinant M. smegmatis RNAP β′ subunit (N-terminal 6xHistidine) (M. smegmatis, UniProt A0QS66 1-1317)
Test: co-IP

B1: purified recombinant MsmTopoI (enzyme, M. smegmatis, UniProt A0R5D9 1-936, looked up)
chain: MAGGDRGSGGTGNVRRLVIVESPTKARKIAGYLGSNYVVESSRGHIRDLPRNAADVPAKFKSEPWARLGVNVDQNFEPLYIVSPEKKSTVTELKGLLKDVDELYLATDGDREGEAIAWHLLETLKPRVPVKRMVFHEITEPAIRNAAENPRDLDIALVDAQETRRILDRLYGYEVSPVLWKKVAPKLSAGRVQSVATRIIVQRERERMAFHSASYWDVTAELDASVSDPSASPPKFTAKLNTVDGRRVATGRDFDSLGQLKRPDEVLVLDEASAGALASGLRGAQLAVTSVEQKPYTRRPYAPFMTSTLQQEAARKLRFSSERTMSIAQRLYENGYITYMRTDSTTLSESAINAARTQARQLYGEEYVHPSPRQYTRKVKNAQEAHEAIRPAGDVFQTPGQLHSALDTDEFRLYELIWQRTVASQMADARGTTLSLRIGGSASSGEQVVFNASGRTITFPGFLKAYVESIDELAGGESDDAESRLPNLTQGQRVDAADLSADGHQTSPPARYTEASLIKALEELGIGRPSTYSSIIKTIQDRGYVQKKGSALVPSWVAFAVVGLLEQHFGRLVDYDFTAAMEDELDEIANGQEQRTNWLNNFYFGGEHGVEGSIARAGGLKQLVGGNLEGIDAREVNSIKVFDDSEGRPVYVRVGRNGPYLERMVDDPDNPGEQKPQRANLKEDLTPDELTPELAEKLFATPQEGRSLGIDPETGHEIVAKDGRFGPYVTEVLPEPEDGGDDGTAGTPAKKGKKPTGPKPRTGSLFRSMDLETVTLEDALKLLSLPRVVGVDPTTNEEITAQNGRYGPYLKRGTDSRSLATEDQIFTITLDEALKIYAEPKRRGRQAASAPPLRELGNDPVSGKPMVIKDGRFGPYVTDGETNASLRKGDDVLTITDERASELLADRRARGPVKKKAPAKKAAKKAPAKKAAAKKA
binding result: binds
